Assay results: patent US20250011434A1, “ASYMMETRIC BISPECIFIC ANTIBODY (UMG2/CD1A-CD3E) FOR THE IMMUNOLOGICAL TREATMENT OF CORTICAL-DERIVED CD1A-EXPRESSING T-CELL ACUTE LYMPHOBLASTIC LEUKEMIAS (T-ALL)” (UNIVERSITA' DEGLI STUDI MAGNA GRAECIA DI CATANZARO, published 2025)

Molecular target: CD1a (Homo sapiens (Human), UniProt P06126)
Experiment: titration experiments on cortical, CD1a-expressing T-ALL cell lines (apparent Kd, average)

B1: asymmetric bispecific antibody UMG2/CD1a-CD3ε BTCE (bispecific antibody)
heavy 1: not shown
heavy 2: not shown
light: DIQMTQTTSSLSASLGDRVTISCSASQDISNYLDWYQQKPDGTVRLLIYYTSSLHSGVPSRFSGSGSGTAFSLTIINLEPEDVATYYCHQYSNLPYTFGGGTKLEIKRTVAAPSVFIFPPSDEQLKSGTASVVCLLNNFYPREAKVQWKVDNALQSGNSQESVTEQDSKDSTYSLSSTLTLSKADYEKHKVYACEVTHQGLSSPVTKSFNRGEC
- Kd: 0.014 µg/mL
